To fix the notation:
B1: BSI038×S-004 (bispecific antibody, human IgG2, kappa)
heavy: EEELQVIQPDKSVSVAAGESAILHCTITSLIPVGPIQWFRGAGPARELIYNQREGHFPRVTTVSETTKRENMDFSISISNITPADAGTYYCVKFRKGSPDTEFKSGAGTELSVRAKPSAPVVSGPAARATPGGGGSGGGGSEVQLVESGGGLVKPGGSLRLSCAASGFTFSNYGISWVRQAPGKGLEWVSSISSGGDNTYYPDNVKGRFTISRDNAKNSLYLQMNSLRAEDTAVYYCARAGEKAMDYWGQGTLVTVSSASTKGPSVFPLAPCSRSTSESTAALGCLVKDYFPEPVTVSWNSGALTSGVHTFPAVLQSSGLYSLSSVVTVPSSNFGTQTYTCNVDHKPSNTKVDKTVERKCCVECPPCPAPPVAGPSVFLFPPKPKDTLMISRTPEVTCVVVDVSHEDPEVQFNWYVDGVEVHNAKTKPREEQFNSTFRVVSVLTVVHQDWLNGKEYKCKVSNKGLPAPIEKTISKTKGQPREPQVYTLPPSREEMTKNQVSLTCLVKGFYPSDIAVEWESNGQPENNYKTTPPMLDSDGSFFLYSKLTVDKSRWQQGNVFSCSVMHEALHNHYTQKSLSLSPGK
light: EIVLTQSPATLSLSPGERATLSCRASQTINNNLHWYQQKPGQAPRLLIKYASQSISGIPARFSGSGSGTDFTLTISSLEPEDFAVYFCQQFSSWPLTFGGGTKVEIKRTVAAPSVFIFPPSDEQLKSGTASVVCLLNNFYPREAKVQWKVDNALQSGNSQESVTEQDSKDSTYSLSSTLTLSKADYEKHKVYACEVTHQGLSSPVTKSFNRGEC
B2: BSI038×S-005 (bispecific antibody, human IgG2, kappa)
heavy: B1 heavy with K68R, F103V
light: B1 light
B3: SIRPαV2D1M1-Fc (IgG2) (Fc fusion)
chain: EEELQVIQPDKSVSVAAGESAILHCTITSLIPVGPIQWFRGAGPARELIYNQREGHFPRVTTVSETTKRENMDFSISISNITPADAGTYYCVKFRKGSPDTEFKSGAGTELSVRAKPSAPVVSGPAARATPGGGGSGGGGSERKCCVECPPCPAPPVAGPSVFLFPPKPKDTLMISRTPEVTCVVVDVSHEDPEVQFNWYVDGVEVHNAKTKPREEQFNSTFRVVSVLTVVHQDWLNGKEYKCKVSNKGLPAPIEKTISKTKGQPREPQVYTLPPSREEMTKNQVSLTCLVKGFYPSDIAVEWESNGQPENNYKTTPPMLDSDGSFFLYSKLTVDKSRWQQGNVFSCSVMHEALHNHYTQKSLSLSPGK
B4: SIRPαV2D1M2-Fc (IgG2) (Fc fusion)
chain: B3 chain with K68R, F103V

Substitutions are numbered along the chain they refer to.

The test concerns the target full length human CD47 (NCBI #NP_942088.1) on 293F-CD47 cells (human) (UniProt Q08722). Put plainly: cell-based blocking FACS on 293F-CD47 cells, blocked ligand biotin-labeled human CD172a-Fc, MFI.
Regarding B1, the IC50 – broadly, the concentration that inhibits the measured activity by half – turned out to be 1.8 nM.

Turning to B2, the IC50 was determined as 1.73 nM.

B3 gave an IC50 of 1.84 nM.

The molecule B4 had an IC50 of 2.37 nM.

For the origin of these results see US20250109212A1.
